Target: HIS-MBP-GASZ-ΔMLS (mouse)
Experiment: native gel or EMSA; native PAGE of gel-filtration fraction 5, non-reducing and non-denaturing sample buffer (50 mM Tris pH 7.6, 100 mM NaCl, 0.01% DDM), with or without 2% SDS in the loading buffer, Coomassie blue; monomer to dimer

- stoichiometry N: 2
Substance: HIS-MBP-GASZ-ΔMLS (domain or fragment)

From PMC10781510
